Data on 2 molecules can be found in patent publication US20130184223A1, “METHODS AND COMPOSITIONS RELATED TO MODULATING AUTOPHAGY” (UNIVERSITY OF ROCHESTER, priority 2010, published 2013).

“Also recorded” adds a separate entry of the source.

The subject of test [1] is mp53/Ras transformed and CAPAN-2 cells. Briefly: Endocytosis of fluorescently labeled dextran. The class given is cell-based. The settings on record: 50 uM Alexa-488 dextran for 1 hr; confocal microscopy and FACS. As for the experimental part: (§1) Moreover, the molecular machinery employed in autophagosomal/lysosomal fusion, such as Rab7, is required for endosomal/lysosomal fusion, which is also required for tumor formation in some cancers.
Cells were plated at 2.5×10^5 cells for vector and Rab5a DN mp53/Ras cells on collagen-I coated 10 cm dishes, and 7.5×10^5 cells for vector and Rab5a DN CAPAN-2 cells on 10 cm dishes and allowed to proliferate for two days in maintenance media. Cells were then treated with 50 uM of Alexa-488 labeled 10,000 MW dextran (Invitrogen) for 1 hr in maintenance medium. The cells were then washed 3× with PBS and trypsinized. Cells were pelleted, resuspended in PBS with 1% BSA, transferred to FACS tubes (Falcon), and placed on ice. DAPI was added to a final concentration of […] and cells were FACS analyzed for Alexa-488 signal, with DAPI exclusion of dead cells. To image cells mp53/Ras and CAPAN-2 cells infected with vector control virus or stabily expressing Rab5a DN were plated onto glass coverslips as described in the immunofluorescent staining of cells section. Cells were then treated with 50 uM of Alexa-488 labeled 10,000 MW dextran for 1 hr in maintenance medium. The media containing dextran was removed and the cells were washed 3 times with PBS. […]

The subject of test [2] is mp53/Ras transformed cells and CAPAN-2 cells. Kind of test: Immunoblot of p62 and LC3 in cells expressing autophagy modulators. The class given is cell-based. The settings on record: cells expressing the protein vs vector control.
Source text: Thus, the effects of Plac8 KD on both tumor formation and autophagy can be suppressed by constitutive activation of Rab7.
as §1
To determine if the Plac8 KD-induced loss of tumor formation is specifically due to a loss of autophagy completion, Atg12, a gene required for autophagosomal formation, was overexpressed in Plac8 KD cells.
YAMC, vector, mp53, Ras, and mp53/Ras cells were cultured for two days at 39 C in RPMI with 10% FBS medium and gentamicin in collagen-I coated 15 cm dishes. HT-29, CAPAN-2, PANC-1 and Panc 10.05 cells were cultured for two days at 37 C in maintenance media without selective antibiotics on 15 cm dishes. […] Protein concentration was quantified using Bradford reagent (BioRad) and a Genesys 1 0UV spectrophotometer (Spectronic Unicam). […]

For test [3] the test system is unchanged. Kind of test: Immunocompromised mouse tumorigenicity assay, cells expressing autophagy modulators. The class given is in vivo. The settings on record: cells expressing the protein or shRNA vs vector control, 5×10^5 cells per injection, 4 weeks mp53/Ras, 5 weeks CAPAN-2. As to the method: To determine whether cooperative up-regulation of autophagy is required for tumorigenesis Atg12, a gene involved in autophagosome formation, was knocked-down using two independent constructs in mp53/RasV12 and Capan-2 cells. In addition, a genetic rescue experiment was performed by introducing a shRNA resistant form of ATG12 into these cell backgrounds to test for ATG12 specificity of the observed effects. Tumor formation was inhibited by Atg12 KD in both mp53/Ras and CAPAN-2 cell lines and was rescued by expression of the exogenous shRNA resistant Atg12 (FIG. 4.5a, 4.5c).
Cells were cultured on 15 cm dishes for two days without selective antibiotics at 39 C for mp53/Ras cells and at 37 C for HT-29, CAPAN-2, PANC-1, and 5 Panc10.05. Cells were plated at the following densities: mp53/Ras—7.5×10^5, HT-29 —1.5×10^6, CAPAN-2 —4×10^6, PANC—4×10^6, and PANC 10.05—2×10^6. Cells were trypsinized, counted and re-suspended in RPMI medium lacking supplements for mp53/Ras, CAPAN-2, and Panc10.05, and DMEM lacking supplements for HT-29 and PANC-1 at a density of 5×10^5/100 ul for mp53/Ras and CAPAN-2 cells, 1.25×10^5/100 ul for HT-29 cells, 5×10^6/100 ul for PANC-1, 2×10^6/100 ul for Panc10.05. Matrigel (BD biosciences) was mixed with PANC-1 and Panc10.05 cell/medium mixture at a 1:1 ratio. Cell mixtures were then injected intra-dermally, bilaterally into the flanks of CD1-Foxn1 nude mice (Uracell) […]) in the following numbers: mp53/Ras cells, HT29 1.25×10^5 cells, 5×10^5 CAPAN-2-cells. Cell mixtures were injected intradermally, bilaterally into the flanks of NOD/SCID (UCAR-20060-166 (1)) mice in the following cell numbers per injection: PANC-1 —2.5×10^6 cells and Panc10.05 —1×10^6 cells. Tumor volume was measured every week for 4 weeks for mp53/Ras and HT-29 cells, 5 weeks for CAPAN-2 cells, and 6 weeks for PANC-1.

B1: Rab5a DN: 3× Flag-tagged Rab5a S34N dominant negative mutant, inhibitor of endocytosis (protein, UniProt P20339 1-215, looked up, variant S34N)
Ras-related protein Rab-5A: MASRGATRPNGPNTGNKICQFKLVLLGESAVGKNSLVLRFVKGQFHEFQESTIGAAFLTQTVCLDDTTVKFEIWDTAGQERYHSLAPMYYRGAQAAIVVYDITNEESFARAKNWVKELQRQASPNIVIALSGNKADLANKRAVDFQEAQSYADDNSLLFMETSAKTSMNVNEIFMAIAKKLPKNEPQNPGANSARGRGVDLTEPTQPTRNQCCSN
modifications: 3x Flag tag
Turning to B1, the “endocytosis of Alexa488 labeled dextran” value in test [1] is reported as “inhibits endocytosis of Alexa488 labeled dextran”. The “p62 and LC3 protein levels” value in test [2] was “no effect on p62 or LC3 levels”. Further, the “tumor formation in nude mice” value is “increased tumor size over vector control” in test [3]; “slightly enhanced tumor formation in transformed YAMC cells and no effect on Capan-2 cells” in test [3] (listed as DN Rab5a).

B2: Atg12: over-expressed 3× Flag-tagged Atg12, a gene required for autophagosomal formation (protein, UniProt O94817 1-140, looked up)
Ubiquitin-like protein ATG12: MAEEPQSVLQLPTSIAAGGEGLTDVSPETTTPEPPSSAAVSPGTEEPAGDTKKKIDILLKAVGDTPIMKTKKWAVERTRTIQGLIDFIKKFLKLVASEQLFIYVNQSFAPSPDQEVGTLYECFGSDGKLVLHYCKSQAWG
modifications: 3x Flag tag
notes: over-expressed 3× Flag-tagged Atg12, a gene required for autophagosomal formation
Regarding B2, the “p62 and LC3 protein levels” value in test [2] is “p62 and LC3 protein levels were suppressed”. Moreover, the “tumor formation in nude mice” value in test [3] is on record as “tumor inhibitory; also recorded: inhibits tumor formation”.
